{"source": "the supplement of paper PMC11246515", "test": "total protein half-life in vivo (active degradation + dilution); higher = more stable protein", "key": {"[1]": {"conditions": "E. coli NCM3722 delta-clpP delta-lon delta-hslV, growth: N-lim chemostat, doubling time 6 h"}, "[2]": {"conditions": "E. coli NCM3722 delta-clpP, growth: N-lim chemostat, doubling time 6 h"}, "[3]": {"conditions": "E. coli NCM3722 delta-hslV, growth: N-lim chemostat, doubling time 6 h"}, "[4]": {"conditions": "E. coli NCM3722 delta-lon, growth: N-lim chemostat, doubling time 6 h"}, "[5]": {"conditions": "E. coli NCM3722 delta-smpB, growth: N-lim chemostat, doubling time 6 h"}, "[6]": {"conditions": "wild type E. coli NCM3722, growth: C-lim chemostat, doubling time 3 h"}, "[7]": {"conditions": "wild type E. coli NCM3722, growth: C-lim chemostat, doubling time 6 h"}, "[8]": {"conditions": "wild type E. coli NCM3722, growth: C-lim chemostat, doubling time 12 h"}, "[9]": {"conditions": "wild type E. coli NCM3722, growth: N-lim chemostat, doubling time 6 h"}, "[10]": {"conditions": "wild type E. coli NCM3722, growth: N-lim chemostat, doubling time 12 h"}, "[11]": {"conditions": "wild type E. coli NCM3722, growth: P-lim chemostat, doubling time 6 h"}, "[12]": {"conditions": "wild type E. coli NCM3722, growth: P-lim chemostat, doubling time 12 h"}}, "note": "± gives the standard deviation of the averaged measurements."}
{"sequence": "MGKALVIVESPAKAKTINKYLGSDYVVKSSVGHIRDLPTSGSAAKKSADSTSTKTAKKPKKDERGALVNRMGVDPWHNWEAHYEVLPGKEKVVSELKQLAEKADHIYLATDLDREGEAIAWHLREVIGGDDARYSRVVFNEITKNAIRQAFNKPGELNIDRVNAQQARRFMDRVVGYMVSPLLWKKIARGLSAGRVQSVAVRLVVEREREIKAFVPEEFWEVDASTTTPSGEALALQVTHQNDKPFRPVNKEQTQAAVSLLEKARYSVLEREDKPTTSKPGAPFITSTLQQAASTRLGFGVKKTMMMAQRLYEAGYITYMRTDSTNLSQDAVNMVRGYISDNFGKKYLPESPNQYASKENSQEAHEAIRPSDVNVMAESLKDMEADAQKLYQLIWRQFVACQMTPAKYDSTTLTVGAGDFRLKARGRILRFDGWTKVMPALRKGDEDRILPAVNKGDALTLVELTPAQHFTKPPARFSEASLVKELEKRGIGRPSTYASIISTIQDRGYVRVENRRFYAEKMGEIVTDRLEENFRELMNYDFTAQMENSLDQVANHEAEWKAVLDHFFSDFTQQLDKAEKDPEEGGMRPNQMVLTSIDCPTCGRKMGIRTASTGVFLGCSGYALPPKERCKTTINLVPENEVLNVLEGEDAETNALRAKRRCPKCGTAMDSYLIDPKRKLHVCGNNPTCDGYEIEEGEFRIKGYDGPIVECEKCGSEMHLKMGRFGKYMACTNEECKNTRKILRNGEVAPPKEDPVPLPELPCEKSDAYFVLRDGAAGVFLAANTFPKSRETRAPLVEELYRFRDRLPEKLRYLADAPQQDPEGNKTMVRFSRKTKQQYVSSEKDGKATGWSAFYVDGKWVEGKK", "values": [{"measurement": "total protein half-life in vivo", "setting": "[1]", "result": "6.56 ± 0.22", "unit": "h"}, {"measurement": "total protein half-life in vivo", "setting": "[2]", "result": "6.56 ± 0.69", "unit": "h"}, {"measurement": "total protein half-life in vivo", "setting": "[3]", "result": "5.9165 ± 0.0035", "unit": "h"}, {"measurement": "total protein half-life in vivo", "setting": "[4]", "result": "6.34 ± 0.074", "unit": "h"}, {"measurement": "total protein half-life in vivo", "setting": "[5]", "result": "5.43 ± 0.18", "unit": "h"}, {"measurement": "total protein half-life in vivo", "setting": "[6]", "result": "2.57 ± 0.091", "unit": "h"}, {"measurement": "total protein half-life in vivo", "setting": "[7]", "result": "5.9591 ± 0.0017", "unit": "h"}, {"measurement": "total protein half-life in vivo", "setting": "[8]", "result": "10.5 ± 0.44", "unit": "h"}, {"measurement": "total protein half-life in vivo", "setting": "[9]", "result": "5.88 ± 0.34", "unit": "h"}, {"measurement": "total protein half-life in vivo", "setting": "[10]", "result": "12.4 ± 0.35", "unit": "h"}, {"measurement": "total protein half-life in vivo", "setting": "[11]", "result": "5.24 ± 0.54", "unit": "h"}, {"measurement": "total protein half-life in vivo", "setting": "[12]", "result": "11.5 ± 0.38", "unit": "h"}]}
{"sequence": "MGKLTLLLLAILVWLQYSLWFGKNGIHDYTRVNDDVAAQQATNAKLKARNDQLFAEIDDLNGGQEALEERARNELSMTRPGETFYRLVPDASKRAQSAGQNNR [P0A6S5]", "values": [{"measurement": "total protein half-life in vivo", "setting": "[1]", "result": 5.44, "unit": "h"}, {"measurement": "total protein half-life in vivo", "setting": "[2]", "result": 3.17, "unit": "h"}, {"measurement": "total protein half-life in vivo", "setting": "[3]", "result": 4.05, "unit": "h"}, {"measurement": "total protein half-life in vivo", "setting": "[4]", "result": 4.37, "unit": "h"}, {"measurement": "total protein half-life in vivo", "setting": "[6]", "result": 2.7, "unit": "h"}, {"measurement": "total protein half-life in vivo", "setting": "[7]", "result": "4.69 ± 0.55", "unit": "h"}, {"measurement": "total protein half-life in vivo", "setting": "[9]", "result": 3.47, "unit": "h"}, {"measurement": "total protein half-life in vivo", "setting": "[10]", "result": 6.03, "unit": "h"}, {"measurement": "total protein half-life in vivo", "setting": "[12]", "result": "> 16", "unit": "h"}]}
{"sequence": "MGLPPLSKIPLILRPQAWLHRRHYGEVLSPIRWWGRIPFIFYLVSMFVGWLERKRSPLDPVVRSLVSARIAQMCLCEFCVDITSMKVAERTGSSDKLLAVADWRQSPLFSDEERLALEYAEAASVTPPTVDDALRTRLAAHFDAQALTELTALIGLQNLSARFNSAMDIPAQGLCRIPEKRS", "values": [{"measurement": "total protein half-life in vivo", "setting": "[1]", "result": "6.87 ± 0.28", "unit": "h"}, {"measurement": "total protein half-life in vivo", "setting": "[2]", "result": "6.4 ± 0.37", "unit": "h"}, {"measurement": "total protein half-life in vivo", "setting": "[3]", "result": "6.22 ± 0.48", "unit": "h"}, {"measurement": "total protein half-life in vivo", "setting": "[4]", "result": "6.463 ± 0.023", "unit": "h"}, {"measurement": "total protein half-life in vivo", "setting": "[5]", "result": "5.67 ± 0.46", "unit": "h"}, {"measurement": "total protein half-life in vivo", "setting": "[6]", "result": "2.74 ± 0.068", "unit": "h"}, {"measurement": "total protein half-life in vivo", "setting": "[7]", "result": "5.52 ± 0.59", "unit": "h"}, {"measurement": "total protein half-life in vivo", "setting": "[8]", "result": "12.1 ± 0.48", "unit": "h"}, {"measurement": "total protein half-life in vivo", "setting": "[9]", "result": "6 ± 0.46", "unit": "h"}, {"measurement": "total protein half-life in vivo", "setting": "[10]", "result": "11.3 ± 3.4", "unit": "h"}, {"measurement": "total protein half-life in vivo", "setting": "[11]", "result": "6.48 ± 0.71", "unit": "h"}, {"measurement": "total protein half-life in vivo", "setting": "[12]", "result": "13.1 ± 0.5", "unit": "h"}]}
{"sequence": "MGNNVVVLGTQWGDEGKGKIVDLLTERAKYVVRYQGGHNAGHTLVINGEKTVLHLIPSGILRENVTSIIGNGVVLSPAALMKEMKELEDRGIPVRERLLLSEACPLILDYHVALDNAREKARGAKAIGTTGRGIGPAYEDKVARRGLRVGDLFDKETFAEKLKEVMEYHNFQLVNYYKAEAVDYQKVLDDTMAVADILTSMVVDVSDLLDQARQRGDFVMFEGAQGTLLDIDHGTYPYVTSSNTTAGGVATGSGLGPRYVDYVLGILKAYSTRVGAGPFPTELFDETGEFLCKQGNEFGATTGRRRRTGWLDTVAVRRAVQLNSLSGFCLTKLDVLDGLKEVKLCVAYRMPDGREVTTTPLAADDWKGVEPIYETMPGWSESTFGVKDRSGLPQAALNYIKRIEELTGVPIDIISTGPDRTETMILRDPFDA [P0A7D4]", "values": [{"measurement": "total protein half-life in vivo", "setting": "[1]", "result": "4.49 ± 0.41", "unit": "h"}, {"measurement": "total protein half-life in vivo", "setting": "[2]", "result": "4.35 ± 0.28", "unit": "h"}, {"measurement": "total protein half-life in vivo", "setting": "[3]", "result": "4.567 ± 0.026", "unit": "h"}, {"measurement": "total protein half-life in vivo", "setting": "[4]", "result": "4.73 ± 0.3", "unit": "h"}, {"measurement": "total protein half-life in vivo", "setting": "[5]", "result": "4.3 ± 0.15", "unit": "h"}, {"measurement": "total protein half-life in vivo", "setting": "[6]", "result": "3.04 ± 0.093", "unit": "h"}, {"measurement": "total protein half-life in vivo", "setting": "[7]", "result": "5.86 ± 0.3", "unit": "h"}, {"measurement": "total protein half-life in vivo", "setting": "[8]", "result": "10.4 ± 1.6", "unit": "h"}, {"measurement": "total protein half-life in vivo", "setting": "[9]", "result": "4.39 ± 0.098", "unit": "h"}, {"measurement": "total protein half-life in vivo", "setting": "[10]", "result": "7.26 ± 0.18", "unit": "h"}, {"measurement": "total protein half-life in vivo", "setting": "[11]", "result": "6.09 ± 0.23", "unit": "h"}, {"measurement": "total protein half-life in vivo", "setting": "[12]", "result": "10.6 ± 0.72", "unit": "h"}]}
{"sequence": "MGNRTKEDELYREMCRVVGKVVLEMRDLGQEPKHIVIAGVLRTALANKRIQRSELEKQAMETVINALVK [P0ACX5]", "values": [{"measurement": "total protein half-life in vivo", "setting": "[3]", "result": 3.93, "unit": "h"}, {"measurement": "total protein half-life in vivo", "setting": "[6]", "result": "> 4", "unit": "h"}, {"measurement": "total protein half-life in vivo", "setting": "[7]", "result": 4.79, "unit": "h"}, {"measurement": "total protein half-life in vivo", "setting": "[10]", "result": 15.3, "unit": "h"}, {"measurement": "total protein half-life in vivo", "setting": "[11]", "result": "5.05 ± 1.9", "unit": "h"}, {"measurement": "total protein half-life in vivo", "setting": "[12]", "result": "12.6 ± 1.2", "unit": "h"}]}
{"sequence": "MGNSDRKPGLIKRLWKWWRTPSRLALGTLLLIGFVGGIVFWGGFNTGMEKANTEEFCISCHEMRNTVYQEYMDSVHYNNRSGVRATCPDCHVPHEFVPKMIRKLKASKELYGKIFGVIDTPQKFEAHRLTMAQNEWRRMKDNNSQECRNCHNFEYMDTTAQKSVAAKMHDQAVKDGQTCIDCHKGIAHKLPDMREVEPGF [P0ABL5]", "values": [{"measurement": "total protein half-life in vivo", "setting": "[2]", "result": 4.79, "unit": "h"}, {"measurement": "total protein half-life in vivo", "setting": "[5]", "result": "5.22 ± 1.8", "unit": "h"}, {"measurement": "total protein half-life in vivo", "setting": "[7]", "result": 3.97, "unit": "h"}, {"measurement": "total protein half-life in vivo", "setting": "[8]", "result": 9.62, "unit": "h"}, {"measurement": "total protein half-life in vivo", "setting": "[12]", "result": 8.81, "unit": "h"}]}
